Reference: patent US10155811B2, “APLNR modulators and uses thereof” (Regeneron Pharmaceuticals, Inc., priority 2013, dated 2018)
Where a chain is given by its changes, count along the chain named.

T1: hAPLNR (Homo sapiens, UniProt P35414)
T1 sequence (P35414 1-380): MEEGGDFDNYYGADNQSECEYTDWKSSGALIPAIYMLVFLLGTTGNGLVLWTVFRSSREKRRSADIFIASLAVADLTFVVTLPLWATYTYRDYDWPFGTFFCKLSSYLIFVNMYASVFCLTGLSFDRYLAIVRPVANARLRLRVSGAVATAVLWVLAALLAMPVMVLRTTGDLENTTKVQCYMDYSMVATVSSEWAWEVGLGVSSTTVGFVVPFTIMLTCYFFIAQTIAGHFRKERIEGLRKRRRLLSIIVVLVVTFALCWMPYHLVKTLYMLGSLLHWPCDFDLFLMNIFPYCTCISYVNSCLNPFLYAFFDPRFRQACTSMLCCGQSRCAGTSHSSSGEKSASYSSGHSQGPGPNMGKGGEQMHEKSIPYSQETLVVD

B1: H2aM9227N: anti-APLNR antibody, HCVR/LCVR SEQ ID NO: 50/58, mouse IgG2a Fc (antibody, V domains shown)
VH: EVQLVESGGGLVQPGGSLRLSCAASGFTFSSFWMSWVRQVPGKGLEWVANIKQDGSEKYYVDSVKGRFTISRDNAKNSLYLQMNSLRAEDTAVYYCARDRFGYSFYDKGVRYYYGMDVWGQGTTVTVSS
VL: DIQMTQSPSSLSVSVGDRVTITCRASQGIRNDLGWYQQKPGKAPKRLIYATSSLQSGVPSRFSGSGSGTEFTLTISGLQPEDFATYYCLQHNSYPRTFGQGTKVEIK
modifications: mouse IgG2a Fc
B2: H2aM9222N: anti-APLNR antibody, HCVR/LCVR SEQ ID NO: 34/42, mouse IgG2a Fc (antibody, V domains shown)
VH: B1 VH with S31N, F32Y, V40A, K58R, D62G, D73G, N74D, K76E, F105A
VL: B1 VL with V13A, T51A, G77S
modifications: mouse IgG2a Fc
B3: H2aM9230N: anti-APLNR antibody, HCVR/LCVR SEQ ID NO: 82/90, mouse IgG2a Fc (antibody, V domains shown)
VH: B1 VH with E46Q, F105V
VL: B1 VL with T51A, P80S, N92K
modifications: mouse IgG2a Fc
B4: H2aM9228N: anti-APLNR antibody, HCVR/LCVR SEQ ID NO: 66/74, mouse IgG2a Fc (antibody, V domains shown)
VH: B1 VH with S31N, F32Y, Q39L, V40A, K58R, D62G, D73G, N74D, F105A, Y106F
VL: B1 VL with V13A, T51A, G77S
modifications: mouse IgG2a Fc
B5: H1M9207N: anti-APLNR antibody, HCVR/LCVR SEQ ID NO: 2/10, mouse IgG1 Fc (antibody, V domains shown)
VH: EVQLVESGGGLAQPGGSLRLSCAASGFTFSNYWMSWVRQAPGKGLEWVANIKQDGSEKYYLESVKGRFTISRDNAKNLLYLQMNSLRAEDTAVFYCARPGLLRFLEPGRRYYSGMNVWGQGTTVTVSS
VL: DIQLTQSPSFLSASVGDRVTITCWASQGIRSYLAWYQQKPGKAPKLLIYAASTLQSGVPSRFSGSGSGTEFTLTISSLQPEDFATYYCQQFNSYPWTFGQGTKVEIK
modifications: mouse IgG1 Fc
B6: H4H9103P: anti-APLNR antibody, HCVR/LCVR SEQ ID NO: 162/170, human IgG4 Fc (antibody, V domains shown)
VH: EVQLVESGGGLVQPGRSLRLSCAASGFTFDDYAMHWVRQVPGKGLEWVSGITWNSGDIGYADSVKGRFTISRDNAKNSLYLQMNSLRAEDTALYYCTKDKDSSGYYGIDVWGQGTTVTVSS
VL: DIQMTQSPSSVSASVGDRVTITCRASQGIRTWLAWYQQKPGKAPKLLIYAASSLQSGVPSRFSGSESGTDFTLTISSLQPEDFATYYCQQANSFPFTFGPGTKVDIK
modifications: human IgG4 Fc
B7: H4H9113P: anti-APLNR antibody, HCVR/LCVR SEQ ID NO: 210/218, human IgG4 Fc (antibody, V domains shown)
VH: QVQLVQSGAEVKKPGASVEVSCKASGYTFTDYYIHWIRQAPGQGLEWMGWINPDSGRTNYAQKFQVRVTMTRDTSITTAYMELNRLKSDDTAVYYCARGPLRGYSGYDFFDYWGQGTLVTVSS
VL: B1 VL with V13A, K45N, T51A, G77S, Q79H, Y87S, Y94F, R96L, Q100G
modifications: human IgG4 Fc
B8: H4H9101P: anti-APLNR antibody, HCVR/LCVR SEQ ID NO: 146/154, human IgG4 Fc (antibody, V domains shown)
VH: B7 VH
VL: B5 VL with R30S, T85S, Y87F, F91L, Y94N, W96R
modifications: human IgG4 Fc
B9: H4H9112P: anti-APLNR antibody, HCVR/LCVR SEQ ID NO: 194/202, human IgG4 Fc (antibody, V domains shown)
VH: B7 VH
VL: DIQMTQSPSSLSAFVGDRVTITCRASQSISSYLNWYQQKPGKAPKLLIYTASTLQRGVPSRFRGSGSGTDFTLTISSLQPEDFATYYCHQTYSIPITFGQGTRLEIK
modifications: human IgG4 Fc
B10: H4H9104P: anti-APLNR antibody, HCVR/LCVR SEQ ID NO: 178/186, human IgG4 Fc (antibody, V domains shown)
VH: QVQLVESGGDLVKPGGSLRLSCAASGFTFSDYYMNWIRQAPGKGLEWVSYISSSGSTIHYADSVKGRFTISRDNAKNLVYLRMNSLRAEDTAVYFCAREREVHDYSDPYFFFYGMDVWGQGTTVTVSS
VL: DIQMTQSPSSVSASVGDRVTITCRASQDVSSWLAWYQHKPGKAPKLLIFAASSLQSGVPSRFSGSGSGTDFTLTISSLQSEDFATYYCQQANSFPLTFGGGTKVEIK
modifications: human IgG4 Fc

What follows are molecules tested on HEK293 parental cells (assay: FACS binding to HEK293 parental cells). Details: Table 3; 10 μg/mL antibody; anti-mouse IgG Alexa 647.
Procedure: Binding ratios for human APLNR binding to purified anti-APLNR monoclonal antibodies were determined by a fluorescence-activated cell sorting (FACS) binding assay. […] The resulting stable cell lines, HEK293/CRE-luc/hAPLNR and HEK293/CRE-luc/MfAPLNR, were maintained in DMEM containing 10% FBS, NEAA, and penicillin/streptomycin with either 100 μg/mL Hygromycin B for hAPLNR cells or 500 μg/mL G418 for MfAPLNR cells.
For the FACS analysis, HEK293 parental, HEK293/CRE-luc/hAPLNR, and, HEK293/CRE-luc/mfAPLNR cells were dissociated using Enzyme Free Dissociation reagent (#S-004, Millipore, Billerica, Mass., USA) and 10^6 cells/well were plated onto 96-well v-bottom plates in PBS containing 1% FBS. […] Cells were then filtered and analyzed on Accuri Flow Cytometer (BD Biosciences, San Jose, Calif., USA). Unstained and secondary antibody alone controls were also tested for binding to all cell lines. […] Geometric mean (Geom. mean) of fluorescence for each antibody was then normalized to geometric mean of unstained cells to obtain relative binding of antibody (binding ratios) per each cell type: HEK293 (parental), HEK293/CRE-luc/hAPLNR and HEK293/CRE-luc/MfAPLNR.

Molecule | Binding Ratio of Geom. Mean to Unstained Cells, HEK293 Parental
B1 | 4
B2 | 2
B3 | 3
B4 | 3
B5 | 4

Each molecule was assayed against T1, hAPLNR (assay: CRE-luciferase cyclic AMP assay, activation of hAPLNR (inhibition of Forskolin-induced cAMP) in HEK293/CRE-luc/hAPLNR cells). Details: Table 6A; without Apelin; % of maximum Apelin activation.
Type: cell-based
Set-up: expressed in transfected cells
Procedure: The ability of anti-APLNR antibodies to activate hAPLNR-mediated cell signaling was measured using a cyclic AMP assay. The hAPLNR is a 7-transmembrane G-protein coupled receptor (GPCR).
(§1) The resulting cell line, HEK293/CRE-luc/hAPLNR, was maintained in DMEM containing 10% FBS, NEAA, pencillin/streptomycin, and 100 μg/mL Hygromycin B.
(§2) Testing of antibodies included a no antibody control.
(§3) The results of all assays were analyzed using nonlinear regression (4-parameter logistics) within Prism 5 software (GraphPad).

% Activation at 100 nM mAb (at 5 uM Forskolin) | % Activation at 100 nM mAb (at 10 uM Forskolin) | Molecule
No Activation |  | B6
 | 12% | B1
 | No Activation | B2
 | No Activation | B3
 | No Activation | B4
No Activation |  | B7
No Activation |  | B8
No Activation |  | B9
 | No Activation | B5
No Activation |  | B10

Same assay, conditions: without Apelin; 100 nM highest antibody dose tested

activation of hAPLNR, % of maximum Apelin activation at 100 nM [%] | Molecule
12 | B1

These molecules were tested against T1, hAPLNR (assay: CRE-luciferase cyclic AMP assay, inhibition of hAPLNR in the presence of 100 ρM Apelin in HEK293/CRE-luc/hAPLNR cells). Details: Table 6C.
Type: cell-based
Set-up: expressed in transfected cells
Procedure: as §1, §2, §3

% Inhibition at 100 nM antibody, in the presence of 100 ρM Apelin (at 5 μM Forskolin) | Molecule
11% (IC) | B2

Same assay, conditions: Table 6D

% Inhibition at 100 nM antibody, in the presence of 100 ρM Apelin (at 5 μM Forskolin) | Molecule
No Inhibition | B6
No Inhibition | B7
No Inhibition | B8
No Inhibition | B9
No Inhibition | B10

Same assay, conditions: unmodified anti-APLNR antibodies

Molecule | inhibition (maximum blockade) of 100 ρM Apelin activation
B6 | did not demonstrate any measurable blockade
B7 | did not demonstrate any measurable blockade
B8 | did not demonstrate any measurable blockade
B9 | did not demonstrate any measurable blockade
B10 | did not demonstrate any measurable blockade
